According to patent publication US20250188184A1:

The binders below were run against CD3 (target of the Pool 1 CD3.23 screen) (assay: Octet, crude lysate).
Sequence of CD3 (target of the Pool 1 CD3.23 screen) (P07766 23-126): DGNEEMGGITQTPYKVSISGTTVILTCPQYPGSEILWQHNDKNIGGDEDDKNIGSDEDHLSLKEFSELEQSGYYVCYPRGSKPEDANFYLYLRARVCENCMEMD

Kd	Binder
8.5 nM	CD3.23-L7 (AC3364) (bispecific antibody, V domains shown) VH: EVQLLESGGGIVQPGGSLKLSCAASGFTFNTYAMNWVRQAPGKGLEWVARIRSKYNNYATYYADSVKDRFTISRDDSKNTVYLQMNNLKTEDTAVYYCVRHENFGNSYVSWFAHWGQGTLVTVSS VL: ELVVTQEPSLTVSPGGTVTLTCRSSNGAVTSSNYANWVQQKPGQAPRGLIGGTNKRAPGTPARFSGSLLGGKAALTLSGVQPEDEAVYYCALWYPNLWVFGGGTKLTVL
5.7 nM	CD3.44 (AC3373) (bispecific antibody, V domains shown) VH: EVQLLESGGGIVQPGGSLKLSCAASGFTFNTYAMNWVRQAPGKGLEWTARIRSKYNNYATYYADSVKDRFTISRDDSKNTVYLQMNNLKTEDTAVYYCVRHENFGNSYVSWFAHWGQGTLVTVSS VL: ELVVTQEPSLTVSPGGTVTLTCRSSNGAVTSSNYANWVQQKPGQAPRGLIGGTNKRAPGTPARFSGSLLGGKAALTLSGVQPEDEAVYYCALWYPNLWVFGGGTKLTVL
33.1 nM	CD3.73 (AC3402) (bispecific antibody, V domains shown) VH: EVQLLESGGGIVQPGGSLKLSCAASGFTFNTYAMNWVRQAPGKGLEWVARIRSKPNNYATYYADSVKDRFTISRDDSKNTVYLQMNNLKTEDTAVYYCVRHENFGNSYVSWFAHWGQGTLVTVSS VL: ELVVTQEPSLTVSPGGTVTLTCRSSNGAVTSSNYANWVQQKPGQAPRGLIGGTNKRAPGTPARFSGSLLGGKAALTLSGVQPEDEAVYYCALWYPNLWVFGGGTKLTVL
20.1 nM	CD3.71 (AC3400) (bispecific antibody, V domains shown) VH: EVQLLESGGGIVQPGGSLKLSCAASGFTFNTYAMNWVRQAPGKGLEWVARIRSKGNNYATYYADSVKDRFTISRDDSKNTVYLQMNNLKTEDTAVYYCVRHENFGNSYVSWFAHWGQGTLVTVSS VL: ELVVTQEPSLTVSPGGTVTLTCRSSNGAVTSSNYANWVQQKPGQAPRGLIGGTNKRAPGTPARFSGSLLGGKAALTLSGVQPEDEAVYYCALWYPNLWVFGGGTKLTVL
434 nM	CD3.60 (AC3389) (bispecific antibody, V domains shown) VH: EVQLLESGGGIVQPGGSLKLSCAASGFTFNTYAMNWVRQAPGKGLEWVARIQSKYNNYATYYADSVKDRFTISRDDSKNTVYLQMNNLKTEDTAVYYCVRHENFGNSYVSWFAHWGQGTLVTVSS VL: ELVVTQEPSLTVSPGGTVTLTCRSSNGAVTSSNYANWVQQKPGQAPRGLIGGTNKRAPGTPARFSGSLLGGKAALTLSGVQPEDEAVYYCALWYPNLWVFGGGTKLTVL
34300 nM	CD3.45 (AC3374) (bispecific antibody, V domains shown) VH: EVQLLESGGGIVQPGGSLKLSCAASGFTFNTYAMNWVRQAPGKGLEWWARIRSKYNNYATYYADSVKDRFTISRDDSKNTVYLQMNNLKTEDTAVYYCVRHENFGNSYVSWFAHWGQGTLVTVSS VL: ELVVTQEPSLTVSPGGTVTLTCRSSNGAVTSSNYANWVQQKPGQAPRGLIGGTNKRAPGTPARFSGSLLGGKAALTLSGVQPEDEAVYYCALWYPNLWVFGGGTKLTVL
40.2 nM	CD3.38 (AC3367) (bispecific antibody, V domains shown) VH: EVQLLESGGGIVQPGGSLKLSCAASGFTFNTYAMNWVRQAPGKGLEDVARIRSKYNNYATYYADSVKDRFTISRDDSKNTVYLQMNNLKTEDTAVYYCVRHENFGNSYVSWFAHWGQGTLVTVSS VL: ELVVTQEPSLTVSPGGTVTLTCRSSNGAVTSSNYANWVQQKPGQAPRGLIGGTNKRAPGTPARFSGSLLGGKAALTLSGVQPEDEAVYYCALWYPNLWVFGGGTKLTVL
71.5 nM	CD3.42 (AC3371) (bispecific antibody, V domains shown) VH: EVQLLESGGGIVQPGGSLKLSCAASGFTFNTYAMNWVRQAPGKGLEWGARIRSKYNNYATYYADSVKDRFTISRDDSKNTVYLQMNNLKTEDTAVYYCVRHENFGNSYVSWFAHWGQGTLVTVSS VL: ELVVTQEPSLTVSPGGTVTLTCRSSNGAVTSSNYANWVQQKPGQAPRGLIGGTNKRAPGTPARFSGSLLGGKAALTLSGVQPEDEAVYYCALWYPNLWVFGGGTKLTVL
3.8 nM	CD3.70 (AC3399) (bispecific antibody, V domains shown) VH: EVQLLESGGGIVQPGGSLKLSCAASGFTFNTYAMNWVRQAPGKGLEWVARIRSKRNNYATYYADSVKDRFTISRDDSKNTVYLQMNNLKTEDTAVYYCVRHENFGNSYVSWFAHWGQGTLVTVSS VL: ELVVTQEPSLTVSPGGTVTLTCRSSNGAVTSSNYANWVQQKPGQAPRGLIGGTNKRAPGTPARFSGSLLGGKAALTLSGVQPEDEAVYYCALWYPNLWVFGGGTKLTVL
1180 nM	CD3.54 (AC3383) (bispecific antibody, V domains shown) VH: EVQLLESGGGIVQPGGSLKLSCAASGFTFNTYAMNWVRQAPGKGLEWVARARSKYNNYATYYADSVKDRFTISRDDSKNTVYLQMNNLKTEDTAVYYCVRHENFGNSYVSWFAHWGQGTLVTVSS VL: ELVVTQEPSLTVSPGGTVTLTCRSSNGAVTSSNYANWVQQKPGQAPRGLIGGTNKRAPGTPARFSGSLLGGKAALTLSGVQPEDEAVYYCALWYPNLWVFGGGTKLTVL
11.2 nM	CD3.43 (AC3372) (bispecific antibody, V domains shown) VH: EVQLLESGGGIVQPGGSLKLSCAASGFTFNTYAMNWVRQAPGKGLEWSARIRSKYNNYATYYADSVKDRFTISRDDSKNTVYLQMNNLKTEDTAVYYCVRHENFGNSYVSWFAHWGQGTLVTVSS VL: ELVVTQEPSLTVSPGGTVTLTCRSSNGAVTSSNYANWVQQKPGQAPRGLIGGTNKRAPGTPARFSGSLLGGKAALTLSGVQPEDEAVYYCALWYPNLWVFGGGTKLTVL
11.5 nM	CD3.69 (AC3398) (bispecific antibody, V domains shown) VH: EVQLLESGGGIVQPGGSLKLSCAASGFTFNTYAMNWVRQAPGKGLEWVARIRSKANNYATYYADSVKDRFTISRDDSKNTVYLQMNNLKTEDTAVYYCVRHENFGNSYVSWFAHWGQGTLVTVSS VL: ELVVTQEPSLTVSPGGTVTLTCRSSNGAVTSSNYANWVQQKPGQAPRGLIGGTNKRAPGTPARFSGSLLGGKAALTLSGVQPEDEAVYYCALWYPNLWVFGGGTKLTVL
14 nM	CD3.23-D (AC3366) (bispecific antibody, V domains shown) VH: EVQLLESGGGIVQPGGSLKLSCAASGFTFNTYAMNWVRQAPGKGLEWVARIRSKYNNYATYYADSVKDRFTISRDDSKNTVYLQMNNLKTEDTAVYYCVRHENFGNSYVSWFAHWGQGTLVTVSS VL: ELVVTQEPSLTVSPGGTVTLTCRSSNGAVTSSNYANWVQQKPGQAPRGLIGGTNKRAPGTPARFSGSLLGGKAALTLSGVQPEDEAVYYCALWYPNLWVFGGGTKLTVL
18.1 nM	CD3.39 (AC3368) (bispecific antibody, V domains shown) VH: EVQLLESGGGIVQPGGSLKLSCAASGFTFNTYAMNWVRQAPGKGLEEVARIRSKYNNYATYYADSVKDRFTISRDDSKNTVYLQMNNLKTEDTAVYYCVRHENFGNSYVSWFAHWGQGTLVTVSS VL: ELVVTQEPSLTVSPGGTVTLTCRSSNGAVTSSNYANWVQQKPGQAPRGLIGGTNKRAPGTPARFSGSLLGGKAALTLSGVQPEDEAVYYCALWYPNLWVFGGGTKLTVL
5.1 nM	CD3.72 (AC3401) (bispecific antibody, V domains shown) VH: EVQLLESGGGIVQPGGSLKLSCAASGFTFNTYAMNWVRQAPGKGLEWVARIRSKKNNYATYYADSVKDRFTISRDDSKNTVYLQMNNLKTEDTAVYYCVRHENFGNSYVSWFAHWGQGTLVTVSS VL: ELVVTQEPSLTVSPGGTVTLTCRSSNGAVTSSNYANWVQQKPGQAPRGLIGGTNKRAPGTPARFSGSLLGGKAALTLSGVQPEDEAVYYCALWYPNLWVFGGGTKLTVL
165 nM	CD3.41 (AC3370) (bispecific antibody, V domains shown) VH: EVQLLESGGGIVQPGGSLKLSCAASGFTFNTYAMNWVRQAPGKGLEWEARIRSKYNNYATYYADSVKDRFTISRDDSKNTVYLQMNNLKTEDTAVYYCVRHENFGNSYVSWFAHWGQGTLVTVSS VL: ELVVTQEPSLTVSPGGTVTLTCRSSNGAVTSSNYANWVQQKPGQAPRGLIGGTNKRAPGTPARFSGSLLGGKAALTLSGVQPEDEAVYYCALWYPNLWVFGGGTKLTVL
51 nM	CD3.68 (AC3397) (bispecific antibody, V domains shown) VH: EVQLLESGGGIVQPGGSLKLSCAASGFTFNTYAMNWVRQAPGKGLEWVARIRSPYNNYATYYADSVKDRFTISRDDSKNTVYLQMNNLKTEDTAVYYCVRHENFGNSYVSWFAHWGQGTLVTVSS VL: ELVVTQEPSLTVSPGGTVTLTCRSSNGAVTSSNYANWVQQKPGQAPRGLIGGTNKRAPGTPARFSGSLLGGKAALTLSGVQPEDEAVYYCALWYPNLWVFGGGTKLTVL
4.5 nM	CD3.48 (AC3377) (bispecific antibody, V domains shown) VH: EVQLLESGGGIVQPGGSLKLSCAASGFTFNTYAMNWVRQAPGKGLEWVGRIRSKYNNYATYYADSVKDRFTISRDDSKNTVYLQMNNLKTEDTAVYYCVRHENFGNSYVSWFAHWGQGTLVTVSS VL: ELVVTQEPSLTVSPGGTVTLTCRSSNGAVTSSNYANWVQQKPGQAPRGLIGGTNKRAPGTPARFSGSLLGGKAALTLSGVQPEDEAVYYCALWYPNLWVFGGGTKLTVL
4.8 nM	CD3.67 (AC3396) (bispecific antibody, V domains shown) VH: EVQLLESGGGIVQPGGSLKLSCAASGFTFNTYAMNWVRQAPGKGLEWVARIRTKYNNYATYYADSVKDRFTISRDDSKNTVYLQMNNLKTEDTAVYYCVRHENFGNSYVSWFAHWGQGTLVTVSS VL: ELVVTQEPSLTVSPGGTVTLTCRSSNGAVTSSNYANWVQQKPGQAPRGLIGGTNKRAPGTPARFSGSLLGGKAALTLSGVQPEDEAVYYCALWYPNLWVFGGGTKLTVL
11.1 nM	CD3.74 (AC3403) (bispecific antibody, V domains shown) VH: EVQLLESGGGIVQPGGSLKLSCAASGFTFNTYAMNWVRQAPGKGLEWVARIRSKTNNYATYYADSVKDRFTISRDDSKNTVYLQMNNLKTEDTAVYYCVRHENFGNSYVSWFAHWGQGTLVTVSS VL: ELVVTQEPSLTVSPGGTVTLTCRSSNGAVTSSNYANWVQQKPGQAPRGLIGGTNKRAPGTPARFSGSLLGGKAALTLSGVQPEDEAVYYCALWYPNLWVFGGGTKLTVL
8.3 nM	CD3.40 (AC3369) (bispecific antibody, V domains shown) VH: EVQLLESGGGIVQPGGSLKLSCAASGFTFNTYAMNWVRQAPGKGLEWAARIRSKYNNYATYYADSVKDRFTISRDDSKNTVYLQMNNLKTEDTAVYYCVRHENFGNSYVSWFAHWGQGTLVTVSS VL: ELVVTQEPSLTVSPGGTVTLTCRSSNGAVTSSNYANWVQQKPGQAPRGLIGGTNKRAPGTPARFSGSLLGGKAALTLSGVQPEDEAVYYCALWYPNLWVFGGGTKLTVL
425 nM	CD3.56 (AC3385) (bispecific antibody, V domains shown) VH: EVQLLESGGGIVQPGGSLKLSCAASGFTFNTYAMNWVRQAPGKGLEWVARTRSKYNNYATYYADSVKDRFTISRDDSKNTVYLQMNNLKTEDTAVYYCVRHENFGNSYVSWFAHWGQGTLVTVSS VL: ELVVTQEPSLTVSPGGTVTLTCRSSNGAVTSSNYANWVQQKPGQAPRGLIGGTNKRAPGTPARFSGSLLGGKAALTLSGVQPEDEAVYYCALWYPNLWVFGGGTKLTVL
